The subject of data set [1] is Saccharomyces cerevisiae. Kind of data set: protein stability index of tFT-peptide fusion in deletion strain of DOA10 (PSI (0-1 scale)); higher = more stable (slower turnover). Here is the method:
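MPS profiling in S. cerevisiae of two library types built from selected 12-aa C-degron peptides (IN1, IN2, LN1, LN3, VN2, R1-R5, W1-W3, Atg1 and Rpa12 C-termini): saturation mutagenesis libraries and C-terminal +1 capping libraries (13 aa). Each peptide is fused to the C-terminus of a sfGFP-mCherry timer, after a GGGS linker. Cells are FACS-sorted into 8 mCherry/sfGFP bins and sequenced. PSI runs from 0 (unstable) to 1 (stable), measured once in wild type and in the das1Δ or doa10Δ background.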

The test system of data set [2] is Saccharomyces cerevisiae. As to the kind of experiment: protein stability index of tFT-peptide fusion in wild type (PSI (0-1 scale)); higher = more stable (slower turnover). The settings on record: genetic background: wild type.

Drawing on the supplement of paper PMC10724198, this text covers protein stability index for 44 sequences.
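Throughout, for protein stability index of tFT-peptide fusion in deletion strain of DOA10: PSI per variant is the weighted mean of its sequencing read distribution over the sorted stability bins, counting only variants with over 10 reads summed across bins.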
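Throughout, for protein stability index of tFT-peptide fusion in wild type: PSI derived as read-weighted mean over the 8 sorting bins, only variants exceeding 10 total reads kept, mCherry placed adjacent to the peptide and sfGFP distal.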

For AITLPMCPMLLR, the protein stability index in data set [1] was 0.661; in data set [2], 0.392.

AITLPMLPLLLR: the protein stability index in data set [1] came out at 0.633; in data set [2] it was 0.125.

In the case of AITLPMQPLLLR, the protein stability index was 0.639 in data set [1] and 0.238 in data set [2].

For AITLPMTPLLLR, the protein stability index in data set [1] was 0.644; in data set [2] it was 0.229.

As for AITLPRCPLLLR, the protein stability index in data set [1] worked out at 0.662; in data set [2] it was 0.265.

Turning to AIYLPMCPLLLR, the protein stability index in data set [1] worked out at 0.617; in data set [2], 0.268.

Consider AYTLPMCPLLLR, for which the protein stability index amounted to 0.657 in data set [1] and 0.171 in data set [2].

Consider CITLPMCPLLLR, for which the protein stability index in data set [1] amounted to 0.635; in data set [2], 0.118.

Consider CIVSLPILLFFR, for which the values for the protein stability index in data set [1] and in data set [2] were 0.566 and 0.0595, respectively.

For CLCSLPILLFFR, the protein stability index in data set [1] was determined as 0.615; in data set [2] it was 0.106.

For the sequence CLFSLPILLFFR, the protein stability index in data set [1] is 0.581; in data set [2], 0.0583.

CLQSLPILLFFR: the figures for the protein stability index in data set [1] and in data set [2] were 0.631 and 0.0983, respectively.

Turning to CLVCLPILLFFR, the protein stability index in data set [1] came to 0.494; in data set [2], 0.104.

Turning to CLVSLHILLFFR, the protein stability index in data set [1] was 0.292; in data set [2], 0.144.

As to CLVSLPCLLFFR, the values for the protein stability index in data set [1] and in data set [2] were 0.639 and 0.064, respectively.

In the case of CLVSLPILGFFR, the protein stability index was found to be 0.661 in data set [1] and 0.625 in data set [2].

Consider CLVSLPILIFFR, for which the protein stability index in data set [1] was 0.53; in data set [2], 0.0649.

For CLVSLPILLAFR, the protein stability index in data set [1] came out at 0.594; in data set [2], 0.115.

CLVSLPILLDFR: the values for the protein stability index in data set [1] and in data set [2] were 0.643 and 0.553, respectively.

In the case of CLVSLPILLFFD, the protein stability index in data set [1] was 0.583; in data set [2] it was 0.433.

CLVSLPILLFFL: the protein stability index in data set [1] was 0.45; in data set [2], 0.293.

CLVSLPILLFFQ: the results for the protein stability index in data set [1] and in data set [2] were 0.53 and 0.313, respectively.

Regarding CLVSLPILLFFRK, the protein stability index in data set [1] worked out at 0.57; in data set [2], 0.115.

For the sequence CLVSLPILLFFRQ, the values for the protein stability index in data set [1] and in data set [2] were 0.362 and 0.0783, respectively.

CLVSLPILLFFRV: the protein stability index in data set [1] came to 0.413; in data set [2], 0.0545.

On to CLVSLPILLFFRW, for which the protein stability index in data set [1] worked out at 0.473; in data set [2], 0.0557.

On to CLVSLPILLFFV, for which the protein stability index in data set [1] is 0.385; in data set [2], 0.206.

Turning to CLVSLPILLFHR, the results for the protein stability index in data set [1] and in data set [2] were 0.637 and 0.481, respectively.

For CLVSLPILLFIR, the values for the protein stability index in data set [1] and in data set [2] were 0.46 and 0.0496, respectively.

In the case of CLVSLPILLFKR, the protein stability index in data set [1] stood at 0.665; in data set [2], 0.413.

For CLVSLPILLFWR, the values for the protein stability index in data set [1] and in data set [2] were 0.638 and 0.0447, respectively.

In the case of CLVSLPILLFYR, the protein stability index in data set [1] worked out at 0.585; in data set [2] it was 0.116.

CLVSLPILSFFR: the protein stability index in data set [1] was 0.658; in data set [2], 0.581.

Turning to CLVSLPISLFFR, the values for the protein stability index in data set [1] and in data set [2] were 0.656 and 0.101, respectively.

With CLVSLPIYLFFR, the figures for the protein stability index in data set [1] and in data set [2] were 0.607 and 0.0617, respectively.

In the case of CLVSLPPLLFFR, the protein stability index in data set [1] is 0.661; in data set [2] it was 0.0903.

CLVSLPQLLFFR: the protein stability index in data set [1] amounted to 0.655; in data set [2] it was 0.0822.

On to CLVSLSILLFFR, for which the protein stability index in data set [1] was determined as 0.286; in data set [2], 0.183.

With CLVSVPILLFFR, the protein stability index was determined as 0.565 in data set [1] and 0.064 in data set [2].

As for CLVSWPILLFFR, the protein stability index in data set [1] was 0.595; in data set [2], 0.0554.

Regarding CLWSLPILLFFR, the figures for the protein stability index in data set [1] and in data set [2] were 0.594 and 0.0887, respectively.

As to CMVSLPILLFFR, the protein stability index is 0.584 in data set [1] and 0.0703 in data set [2].

With GLAMCSVGCWFR, the protein stability index turned out to be 0.661 in data set [1] and 0.268 in data set [2].

Regarding GLYCCSVGCWFR, the protein stability index in data set [1] was determined as 0.658; in data set [2], 0.342.
